From patent publication US20220048967A1 (published 2022)
Substitutions are numbered along the chain they refer to. Numbered stars: 1 amine (or outer) side, 2 acyl side, 3 side chain; on linkers, the order of the positions; unused ones are H or OH. Square brackets hold non-standard residues; d marks the D form. Side chains are listed from the residue outwards. Ends that are not written are not given here. * marks the point of attachment. C20 diacid = O=C(O)CCCCCCCCCCCCCCCCCCC(=O)*; γGlu = O=C(O)[C@H](CCC(=O)[*:2])N[*:1]; αMeL = CC(C)C[C@](C)(N)C(=O)O; Dab = NCC[C@H](N)C(=O)O; Dap = NC[C@H](N)C(=O)O; AEEA = NCCOCCOCC(=O)O; Aib = CC(C)(N)C(=O)O

T1: human gastric inhibitory peptide receptor (GIPR) (human, UniProt P48546 22-466)
T1 sequence (looked up): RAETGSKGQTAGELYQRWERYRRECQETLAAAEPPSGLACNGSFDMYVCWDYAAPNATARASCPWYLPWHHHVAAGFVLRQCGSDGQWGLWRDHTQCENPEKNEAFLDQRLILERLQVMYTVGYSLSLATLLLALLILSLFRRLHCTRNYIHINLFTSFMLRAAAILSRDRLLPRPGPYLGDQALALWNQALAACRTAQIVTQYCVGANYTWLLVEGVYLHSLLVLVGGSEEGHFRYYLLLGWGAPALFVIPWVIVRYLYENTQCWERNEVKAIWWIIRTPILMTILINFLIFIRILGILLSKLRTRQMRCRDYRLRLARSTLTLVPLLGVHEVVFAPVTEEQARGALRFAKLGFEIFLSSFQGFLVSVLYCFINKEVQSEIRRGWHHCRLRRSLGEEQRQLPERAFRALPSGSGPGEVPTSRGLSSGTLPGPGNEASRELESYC

T2: human GIP receptor (human, UniProt P48546 22-466)
T2 sequence (looked up): T1 sequence (looked up)

B1: Example 350 (peptide)
peptide: [dY][Aib]EGTFTSDYSI[αMeL]LD[Dab]K([AEEA-AEEA-γGlu-C20 diacid])AQ[Aib]EFIEYLIAGGPSSGAPPPS-NH2
modifications: N-terminus assumed
SMILES: CC[C@H](C)[C@H](NC(=O)[C@H](CC(C)C)NC(=O)[C@H](Cc1ccc(O)cc1)NC(=O)[C@H](CCC(=O)O)NC(=O)[C@@H](NC(=O)[C@H](Cc1ccccc1)NC(=O)[C@H](CCC(=O)O)NC(=O)C(C)(C)NC(=O)[C@H](CCC(N)=O)NC(=O)[C@H](C)NC(=O)[C@H](CCCCNC(=O)COCCOCCNC(=O)COCCOCCNC(=O)CC[C@H](NC(=O)CCCCCCCCCCCCCCCCCCC(=O)O)C(=O)O)NC(=O)[C@H](CCN)NC(=O)[C@H](CC(=O)O)NC(=O)[C@H](CC(C)C)NC(=O)[C@](C)(CC(C)C)NC(=O)[C@@H](NC(=O)[C@H](CO)NC(=O)[C@H](Cc1ccc(O)cc1)NC(=O)[C@H](CC(=O)O)NC(=O)[C@H](CO)NC(=O)[C@@H](NC(=O)[C@H](Cc1ccccc1)NC(=O)[C@@H](NC(=O)CNC(=O)[C@H](CCC(=O)O)NC(=O)C(C)(C)NC(=O)[C@H](N)Cc1ccc(O)cc1)[C@@H](C)O)[C@@H](C)O)[C@@H](C)CC)[C@@H](C)CC)C(=O)N[C@@H](C)C(=O)NCC(=O)NCC(=O)N1CCC[C@H]1C(=O)N[C@@H](CO)C(=O)N[C@@H](CO)C(=O)NCC(=O)N[C@@H](C)C(=O)N1CCC[C@H]1C(=O)N1CCC[C@H]1C(=O)N1CCC[C@H]1C(=O)N[C@@H](CO)C(N)=O
B2: Example 351 (peptide)
peptide: [dY][Aib]EGTFTSDYSI[αMeL]LD[Dap]K([AEEA-AEEA-γGlu-C20 diacid])AQ[Aib]EFIEYLIAGGPSSGAPPPS-NH2
modifications: N-terminus assumed
SMILES: CC[C@H](C)[C@H](NC(=O)[C@H](CC(C)C)NC(=O)[C@H](Cc1ccc(O)cc1)NC(=O)[C@H](CCC(=O)O)NC(=O)[C@@H](NC(=O)[C@H](Cc1ccccc1)NC(=O)[C@H](CCC(=O)O)NC(=O)C(C)(C)NC(=O)[C@H](CCC(N)=O)NC(=O)[C@H](C)NC(=O)[C@H](CCCCNC(=O)COCCOCCNC(=O)COCCOCCNC(=O)CC[C@H](NC(=O)CCCCCCCCCCCCCCCCCCC(=O)O)C(=O)O)NC(=O)[C@H](CN)NC(=O)[C@H](CC(=O)O)NC(=O)[C@H](CC(C)C)NC(=O)[C@](C)(CC(C)C)NC(=O)[C@@H](NC(=O)[C@H](CO)NC(=O)[C@H](Cc1ccc(O)cc1)NC(=O)[C@H](CC(=O)O)NC(=O)[C@H](CO)NC(=O)[C@@H](NC(=O)[C@H](Cc1ccccc1)NC(=O)[C@@H](NC(=O)CNC(=O)[C@H](CCC(=O)O)NC(=O)C(C)(C)NC(=O)[C@H](N)Cc1ccc(O)cc1)[C@@H](C)O)[C@@H](C)O)[C@@H](C)CC)[C@@H](C)CC)C(=O)N[C@@H](C)C(=O)NCC(=O)NCC(=O)N1CCC[C@H]1C(=O)N[C@@H](CO)C(=O)N[C@@H](CO)C(=O)NCC(=O)N[C@@H](C)C(=O)N1CCC[C@H]1C(=O)N1CCC[C@H]1C(=O)N1CCC[C@H]1C(=O)N[C@@H](CO)C(N)=O
B3: Example 347 (peptide)
peptide: [dY][Aib]EGTFTSDYSI[αMeL]LD[Dab]K([AEEA-AEEA-γGlu-C20 diacid])AQ[Aib]AFIEYLIAGGPSSGAPPPS-NH2
modifications: N-terminus assumed
SMILES: CC[C@H](C)[C@H](NC(=O)[C@H](CC(C)C)NC(=O)[C@H](Cc1ccc(O)cc1)NC(=O)[C@H](CCC(=O)O)NC(=O)[C@@H](NC(=O)[C@H](Cc1ccccc1)NC(=O)[C@H](C)NC(=O)C(C)(C)NC(=O)[C@H](CCC(N)=O)NC(=O)[C@H](C)NC(=O)[C@H](CCCCNC(=O)COCCOCCNC(=O)COCCOCCNC(=O)CC[C@H](NC(=O)CCCCCCCCCCCCCCCCCCC(=O)O)C(=O)O)NC(=O)[C@H](CCN)NC(=O)[C@H](CC(=O)O)NC(=O)[C@H](CC(C)C)NC(=O)[C@](C)(CC(C)C)NC(=O)[C@@H](NC(=O)[C@H](CO)NC(=O)[C@H](Cc1ccc(O)cc1)NC(=O)[C@H](CC(=O)O)NC(=O)[C@H](CO)NC(=O)[C@@H](NC(=O)[C@H](Cc1ccccc1)NC(=O)[C@@H](NC(=O)CNC(=O)[C@H](CCC(=O)O)NC(=O)C(C)(C)NC(=O)[C@H](N)Cc1ccc(O)cc1)[C@@H](C)O)[C@@H](C)O)[C@@H](C)CC)[C@@H](C)CC)C(=O)N[C@@H](C)C(=O)NCC(=O)NCC(=O)N1CCC[C@H]1C(=O)N[C@@H](CO)C(=O)N[C@@H](CO)C(=O)NCC(=O)N[C@@H](C)C(=O)N1CCC[C@H]1C(=O)N1CCC[C@H]1C(=O)N1CCC[C@H]1C(=O)N[C@@H](CO)C(N)=O
B4: Example 348 (peptide)
peptide: [dY][Aib]EGTFTSDYSI[αMeL]LD[Dap]K([AEEA-AEEA-γGlu-C20 diacid])AQ[Aib]AFIEYLIAGGPSSGAPPPS-NH2
modifications: N-terminus assumed
SMILES: CC[C@H](C)[C@H](NC(=O)[C@H](CC(C)C)NC(=O)[C@H](Cc1ccc(O)cc1)NC(=O)[C@H](CCC(=O)O)NC(=O)[C@@H](NC(=O)[C@H](Cc1ccccc1)NC(=O)[C@H](C)NC(=O)C(C)(C)NC(=O)[C@H](CCC(N)=O)NC(=O)[C@H](C)NC(=O)[C@H](CCCCNC(=O)COCCOCCNC(=O)COCCOCCNC(=O)CC[C@H](NC(=O)CCCCCCCCCCCCCCCCCCC(=O)O)C(=O)O)NC(=O)[C@H](CN)NC(=O)[C@H](CC(=O)O)NC(=O)[C@H](CC(C)C)NC(=O)[C@](C)(CC(C)C)NC(=O)[C@@H](NC(=O)[C@H](CO)NC(=O)[C@H](Cc1ccc(O)cc1)NC(=O)[C@H](CC(=O)O)NC(=O)[C@H](CO)NC(=O)[C@@H](NC(=O)[C@H](Cc1ccccc1)NC(=O)[C@@H](NC(=O)CNC(=O)[C@H](CCC(=O)O)NC(=O)C(C)(C)NC(=O)[C@H](N)Cc1ccc(O)cc1)[C@@H](C)O)[C@@H](C)O)[C@@H](C)CC)[C@@H](C)CC)C(=O)N[C@@H](C)C(=O)NCC(=O)NCC(=O)N1CCC[C@H]1C(=O)N[C@@H](CO)C(=O)N[C@@H](CO)C(=O)NCC(=O)N[C@@H](C)C(=O)N1CCC[C@H]1C(=O)N1CCC[C@H]1C(=O)N1CCC[C@H]1C(=O)N[C@@H](CO)C(N)=O
B5: Example 349 (peptide)
peptide: XXEGTFTSDYSIXLDXKAQXEFIEYLIAGGPSSGAPPPS
modifications: D-Tyr1, Aib2, αMeL13, Orn16, (2-[2-(2-Amino-ethoxy)-ethoxy]-acetyl)2-(γ-Glu)-CO-(CH2)18-CO2H on K17, Aib20, C-terminal NH2
B6: Example 355 (peptide)
peptide: B5 peptide with E24X, A28E
modifications: D-Tyr1, Aib2, αMeL13, Orn16, (2-[2-(2-Amino-ethoxy)-ethoxy]-acetyl)2-(γ-Glu)-CO-(CH2)18-CO2H on K17, Aib20, D-Glu24, C-terminal NH2
B7: Example 356 (peptide)
peptide: B5 peptide with X16K, E21A, E24X, A28E
modifications: D-Tyr1, Aib2, αMeL13, (2-[2-(2-Amino-ethoxy)-ethoxy]-acetyl)2-(γ-Glu)-CO-(CH2)18-CO2H on K17, Aib20, D-Glu24, C-terminal NH2
B8: Example 352 (peptide)
peptide: B5 peptide with X16K, E21A, E24X
modifications: D-Tyr1, Aib2, αMeL13, (2-[2-(2-Amino-ethoxy)-ethoxy]-acetyl)2-(γ-Glu)-CO-(CH2)18-CO2H on K17, Aib20, D-Glu24, C-terminal NH2
B9: Example 358 (peptide)
peptide: B5 peptide with E21A, I23V
modifications: D-Tyr1, Aib2, αMeL13, Orn16, (2-[2-(2-Amino-ethoxy)-ethoxy]-acetyl)2-(γ-Glu)-CO-(CH2)18-CO2H on K17, Aib20, C-terminal NH2
B10: Example 354 (peptide)
peptide: B5 peptide with E24X
modifications: D-Tyr1, Aib2, αMeL13, Orn16, (2-[2-(2-Amino-ethoxy)-ethoxy]-acetyl)2-(γ-Glu)-CO-(CH2)18-CO2H on K17, Aib20, D-Glu24, C-terminal NH2
B11: Example 353 (peptide)
peptide: B5 peptide with X16K, E24X, A28E
modifications: D-Tyr1, Aib2, αMeL13, (2-[2-(2-Amino-ethoxy)-ethoxy]-acetyl)2-(γ-Glu)-CO-(CH2)18-CO2H on K17, Aib20, D-Glu24, C-terminal NH2
B12: Example 357 (peptide)
peptide: B5 peptide with E21A, E24X, A28E
modifications: D-Tyr1, Aib2, αMeL13, Orn16, (2-[2-(2-Amino-ethoxy)-ethoxy]-acetyl)2-(γ-Glu)-CO-(CH2)18-CO2H on K17, Aib20, D-Glu24, C-terminal NH2
B13: Example 3 (peptide)
peptide: B5 peptide with X1Y, F6X, E24X, A28E
modifications: Aib2; αMeF(2F)6; αMeL13; Orn16; K17((2-[2-(2-Amino-ethoxy)-ethoxy]-acetyl)2-(γ-Glu)-CO-(CH2)18-CO2H); Aib20; D-Glu24; C-terminal NH2
B14: Example 87 (peptide)
peptide: YXEGTFTSDYSILLDKKAQXAFIEYLIEGGPSSGAPPPS
modifications: αMePro2; K17((2-[2-(2-Amino-ethoxy)-ethoxy]-acetyl)2-(γ-Glu)-CO-(CH2)18-CO2H); Aib20; C-terminal NH2
B15: Example 111 (peptide)
peptide: B14 peptide
modifications: Aib2; K17((2-[2-(2-Amino-ethoxy)-ethoxy]-acetyl)-(Trx)-(γ-Glu)-CO-(CH2)18-CO2H); Aib20; C-terminal NH2
B16: Example 108 (peptide)
peptide: B14 peptide
modifications: Aib2; K17((2-[2-(2-Amino-ethoxy)-ethoxy]-acetyl)-AOC-(γ-Glu)-CO-(CH2)18-CO2H); Aib20; C-terminal NH2
B17: Example 114 (peptide)
peptide: B14 peptide
modifications: Aib2; K17((2-[2-(2-Amino-ethoxy)-ethoxy]-acetyl)-(ϵK)-(ϵK)-CO-(CH2)18-CO2H); Aib20; C-terminal NH2

Molecular target: T1, human gastric inhibitory peptide …
Assay: cell-based or functional assay

| Binder | hGIPR cAMP EC50 ratio | hGIPR cAMP Rel EC50 [nM] |
| --- | --- | --- |
| B1 | 0.741 | 0.189 |
| B2 | 0.47 | 0.298 |
| B3 | 0.872 | 0.0827 |
| B4 | 0.373 | 0.193 |
| B5 | 0.756 | 0.117 |
| B6 | 0.111 | 0.685 |
| B7 | 0.364 | 0.386 |
| B8 | 0.815 | 0.127 |
| B9 | 0.662 | 0.183 |
| B10 | 0.441 | 0.233 |
| B11 | 0.145 | 0.497 |
| B12 | 0.366 | 0.384 |

Molecular target: human GLP-1 receptor (GLP-1R) (human, UniProt P43220 24-463)
Assay: cell-based or functional assay

| Binder | hGLP1R cAMP EC50 ratio | hGLP1R cAMP Rel EC50 [nM] |
| --- | --- | --- |
| B1 | 0.307 | 0.107 |
| B2 | 0.22 | 0.149 |
| B3 | 0.245 | 0.102 |
| B4 | 0.224 | 0.113 |
| B5 | 0.214 | 0.121 |
| B6 | 0.0285 | 0.896 |
| B7 | 0.0647 | 0.506 |
| B8 | 0.201 | 0.142 |
| B9 | 0.26 | 0.117 |
| B10 | 0.0517 | 0.54 |
| B11 | 0.0231 | 1.09 |
| B12 | 0.181 | 0.181 |

Molecular target: T2, human GIP receptor
Assay: cell-based or functional assay

| Binder | hGIPR cAMP Rel EC50 [nM] |
| --- | --- |
| B13 | 0.0411 |

Molecular target: human GLP-1 receptor (human, UniProt P43220 24-463)
Assay: cell-based or functional assay

| Binder | hGLP1R cAMP Rel EC50 [nM] |
| --- | --- |
| B14 | 0.0801 |
| B15 | 0.308 |
| B16 | 0.294 |
| B17 | 0.267 |
